In US9724388B2, “FGF-18 compound dosing regimen” (MERCK PATENT GMBH, priority 2014, dated 2017):
Like-named read-outs stand apart in the source and are kept apart here.

Tests used:
[1] = tested on: ACLT+tMx model of instability-induced OA; test: ACLT+tMx rat OA model, neo-formation of cartilaginous tissue (Safranin-O quantification); format: in vivo; conditions: for dose at which dose-dependent neo-formation of cartilaginous tissue became significant, medial tibia: FIG. 2b
Protocol: The anterior cruciate ligament transection with resection of the medial meniscus (ACLT+tMx) model of instability-induced OA was performed in male Lewis rats 10-15 weeks of age. Briefly, under anesthesia with isoflurane, the joint capsule of the right knee of each rat was opened, the anterior cruciate and meniscus fixating ligaments were sharply transected, the meniscus was removed and the capsule, muscles and skin closed by sutures. Animals were randomly allocated into 10 groups of n=10 each. The following dosages were investigated: 0, 0.3, 1, 3 and 10 μg per intra-articular injection. Groups 1-5 received one cycle of three single injections at weekly intervals, group 6-10 three single injections at monthly intervals. Intra-articular treatment was started three weeks post-surgery. At this time pathophysiological changes are already mainifest, e.g., cartilage matrix loss. Animals were euthanized 17 weeks after surgery and joints were investigated.

[2] = tested on: full-thickness defect in the articular cartilage of the trochlear groove; format: in vivo, rabbit; conditions: for ICRS gross cartilage score: mean +/- SE
Source text: 60 adult male, naïve, New Zealand White rabbits were used for this study. Animals were approximately 3-4 months of age. Rabbits underwent for creation of the cartilage defect in the right knee. A 2 mm by 6 mm full-thickness defect was made in the articular cartilage of the trochlear groove. The microfracture was created using 18 gauge needles; two 3 mm deep microfractures were made through the subchondral bone at the base of the defect, one proximally and one distally. Each microfracture hole was approximately 1.5 mm in diameter and the holes separated by 2 mm. The experiment consisted of the following six treatment groups, with 10 animals in each group for a total of 60 rabbits (Table 2). Rabbits in Groups 3, 4, 5 and 6 were treated with intra-articular rhFGF-18 in either one cycle of three weekly injections of 100 μg of rhFGF-18 (Group 3 and 5) or one cycle of three monthly injections 100 μg of rhFGF-18 (Group 4 and 6). All animals were euthanized and necropsied 6 months after surgery. [table]

[3] = in vivo; cited from earlier work
[4] = Group 4: no microfracture, 100 μg monthly x3
[5] = Group 6: microfracture, 100 μg monthly x3
[6] = microfracture, monthly for three months, non-significant
[7] = microfracture, monthly for three months, significant
[8] = microfracture, weekly for three weeks, significant
[9] = no microfracture, monthly for three months, non-significant
[10] = no microfracture, monthly for three months, significant

B1: trFGF-18: recombinant truncated form of human FGF-18 (170 amino acids, SEQ ID NO: 2), produced in E. coli (protein)
chain: MEENVDFRIHVENQTRARDDVSRKQLRLYQLYSRTSGKHIQVLGRRISARGEDGDKYAQLLVETDTFGSQVRIKGKETEFYLCMNRKGKLVGKPDGTSKECVFIEKVLENNYTALMSAKYSGWYVGFTKKGRPRKGPKTRENQQDVHFMKRYPKGQPELQKPFKYTTVTK
modifications: Recombinant truncated FGF-18(trFGF-18)
[1]; independently of the injection regimen (3 i.a. injections weekly or monthly), FIG. 2a
  dose at which dose-dependent neo-formation of cartilaginous tissue became significant, lateral tibia: 1 μg/joint
[1]; one monthly regimen
  dose at which dose-dependent neo-formation of cartilaginous tissue became significant, medial tibia: 0.3 μg/joint
[1]; one weekly regimen
  dose at which dose-dependent neo-formation of cartilaginous tissue became significant, medial tibia: 1 μg/joint
[2]; [4]
  ICRS cartilage score: 2.1+/−0.3
  animals with intercondylar groove filled with cartilage (nearly normal to slightly roughened or granular): 6/9
[2]; Group 5: microfracture, 100 μg weekly x3
  ICRS gross cartilage score: 1.9+/−0.3
[2]; [5]
  animals with groove 50% filled up to nearly completely filled with granular to coarsely granular cartilage: 7/10
  animals with intercondylar groove filled with cartilage: 3/10
  ICRS gross cartilage score: 2.4+/−0.2
[2]; [6]
  decrease in total width of the groove lesion: 19%
  decrease in width of the lesion with no viable cartilage: 69%
[2]; [7]
  increase in central MFC thickness: 106%
  increase in summed scores: 76%
  increases (toward normal) in all scored parameters and defect fill percent: 61-97%
[2]; microfracture, weekly for three weeks
  increase in total width of the groove lesion: 5%
[2]; microfracture, weekly for three weeks, non-significant
  decrease in width of the lesion with no viable cartilage: 59%
[2]; [8]
  increase in central MFC thickness: 112%
  increase in summed scores: 53%
  increases (toward normal) in all scored parameters and defect fill percent: 44-69%
[2]; no microfracture, monthly for three months, all sections, generally focal
  degeneration in sections: minimal to severe
[2]; [9]
  increase in other scores: 20-23%
  increase in total width of the groove lesion: 36%
[2]; [10]
  decrease in width of the lesion with no viable cartilage: 94%
  increase in central MFC thickness: 120%
  increase in defect fill percentage: 48%
  increase in the defect fill score: 49%
[2]; rabbit, in vivo
  sections with cartilage hypertrophy: All sections
[3]
  half-life in the joint: less than 24 hours
